Reference: US20220112249A1 (OXFORD UNIVERSITY INNOVATION, published 2022)

Target: T1, fHbp V1.1 with PorA VR2 P1.16 loop in position 5 (P5) (Neisseria meningitidis, UniProt E6MV22 20-274)
T1 sequence: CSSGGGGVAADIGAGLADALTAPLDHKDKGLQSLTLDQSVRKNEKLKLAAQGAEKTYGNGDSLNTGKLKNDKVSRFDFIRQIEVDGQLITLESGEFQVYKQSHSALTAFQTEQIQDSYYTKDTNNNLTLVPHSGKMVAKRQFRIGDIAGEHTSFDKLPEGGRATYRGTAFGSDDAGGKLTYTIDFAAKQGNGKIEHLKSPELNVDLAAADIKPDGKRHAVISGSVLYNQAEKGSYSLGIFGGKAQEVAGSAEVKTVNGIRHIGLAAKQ
Assay: SPR (BIAcore), fHbp:PorA coupled to the chip, CFH (fH67) flowed over

B1: Complement Factor H (CFH) domains 6 and 7 (other)
chain: TLKPCDYPDIKHGGLYHENMRRPYFPVAVGKYYSYYCDEHFETPSGSYWDHIHCTQDGWSPAVPCLRKCYFPYLENGYNQNYGRKFVQGKSIDVACHPGYALPKAQTTVTCMENGWSPTPRCI
notes: domain: fH67 (CFH domains 6-7); also called fH67
- binding result: no binding (tested: 0.5-32 nM)
